This passage reports fold change results from PMC2742444.

In one assay the target is SOS1 (UniProt Q07889). Nature of the assay: anti-FLAG IP, SRM mass spectrometry. Particulars: reference: wild type, no EGF.
Another assay has as its target VAV2 (UniProt P52735). Nature of the assay: anti-FLAG IP, SRM mass spectrometry. The conditions noted are these: reference: wild type, no EGF.

Consider “EGFR (chimeric EGFR-FLAG-GFP) (from UniProt P00533) wild type, EGF 15 min”, for which the fold change with SOS1 is 1.91 fold; with VAV2 it was 1.4 fold.
